Test results taken from US9187525B2, “Methods of treating ophthalmic diseases using NPR-B agonists” (Shire Orphan Therapies GmbH, dated 2015).
Numbered stars: 1 amine (or outer) side, 2 acyl side, 3 side chain; on linkers, the order of the positions; unused ones are H or OH. Square brackets hold non-standard residues; d marks the D form. Ends that are not written are not given here. * marks the point of attachment. Nbhp = rac-(2,3-dihydroxy-propylamino)-acetic acid, O=C(CN(CC(O)CO[*:3])[*:1])[*:2]; Nhpr = (3-hydroxy-propylamino)acetic acid, O=C(CN(CCCO[*:3])[*:1])[*:2]; Gluc‑Aoa = (2,3,4,5,6-pentahydroxyhexylidenaminooxy)-acetic acid; Pro(trans-4-NH2) = O=C([C@@H]1C[C@@H](N[*:3])CN1[*:1])[*:2]; Sni = (S)-nipecotic acid, O=C([C@H]1CCCN([*:1])C1)[*:2]; Hyp = O=C(O)[C@@H]1C[C@@H](O)CN1; dAoc(2) = CCCCCC[C@@H](N)C(=O)O; AR‑314‑102 = not defined here; Aoc(2) = CCCCCC[C@H](N)C(=O)O; NMeL = CN[C@@H](CC(C)C)C(=O)O; d(hSer) = N[C@H](CCO)C(=O)O; lys(Me2) = not defined here; orn(Me2) = not defined here; dDab = NCC[C@@H](N)C(=O)O; Octanoyl = CCCCCCCC(=O)*; 1270 = not defined here; 1888 = not defined here; 1913 = not defined here; Adx = not defined here; Che = not defined here; Oct = not defined here; leu = not defined here; thz = not defined here

T1: natriuretic peptide receptor-B (human)
T1 chain: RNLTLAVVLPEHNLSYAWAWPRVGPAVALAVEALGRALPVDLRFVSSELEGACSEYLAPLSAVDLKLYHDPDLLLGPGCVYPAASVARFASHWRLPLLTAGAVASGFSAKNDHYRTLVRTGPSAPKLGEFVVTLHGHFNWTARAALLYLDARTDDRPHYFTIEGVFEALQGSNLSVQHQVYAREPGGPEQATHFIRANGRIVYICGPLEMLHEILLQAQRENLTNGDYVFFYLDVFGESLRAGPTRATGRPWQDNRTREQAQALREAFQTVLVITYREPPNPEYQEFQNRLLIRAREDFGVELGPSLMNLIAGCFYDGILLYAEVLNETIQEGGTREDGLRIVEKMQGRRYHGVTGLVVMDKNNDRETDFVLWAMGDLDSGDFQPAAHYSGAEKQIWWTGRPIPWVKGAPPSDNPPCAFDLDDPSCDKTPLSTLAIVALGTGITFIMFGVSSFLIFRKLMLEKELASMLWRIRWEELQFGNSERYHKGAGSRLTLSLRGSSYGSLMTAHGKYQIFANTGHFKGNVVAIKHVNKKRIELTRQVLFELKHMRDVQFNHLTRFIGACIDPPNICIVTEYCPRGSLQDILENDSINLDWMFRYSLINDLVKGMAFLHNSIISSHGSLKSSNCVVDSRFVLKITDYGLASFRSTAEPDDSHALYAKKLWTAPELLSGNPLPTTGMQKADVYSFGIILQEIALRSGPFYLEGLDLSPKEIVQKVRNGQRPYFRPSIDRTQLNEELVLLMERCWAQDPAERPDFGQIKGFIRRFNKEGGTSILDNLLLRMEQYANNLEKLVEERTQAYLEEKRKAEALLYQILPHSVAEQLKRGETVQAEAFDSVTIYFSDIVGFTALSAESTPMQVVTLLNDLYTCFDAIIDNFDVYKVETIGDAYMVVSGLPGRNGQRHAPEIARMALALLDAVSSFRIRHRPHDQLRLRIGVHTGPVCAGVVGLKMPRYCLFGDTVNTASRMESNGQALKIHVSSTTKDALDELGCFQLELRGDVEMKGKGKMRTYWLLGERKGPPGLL


Target: T1, natriuretic peptide receptor-B
Assay: cell-based or functional assay

Binder | EC50 group, cGMP in GTM-3 cells
{Gluc‑Aoa}-[dAoc(2)][Sni]FLL[Hyp][NMeL]DRI-NH2 (not fully specified (some residues); printed as Gluc-Aoa-hgl-Sni-Phe-leu-Leu-Hyp-Nml-Asp-Arg-Ile-NH2) [JAL-1803] | ≤ 1 µM
Octanoyl-[Aoc(2)][Sni]FLL[Hyp][NMeL]DRI-NH2 (not fully specified (some residues); printed as Occ-Hgl-Sni-Phe-leu-Leu-Hyp-Nml-Asp-Arg-Ile-NH2) [JAL-1807] | ≤ 15 µM
Octanoyl-SFLL[Hyp][NMeL]DRI-NH2 (not fully specified (some residues); printed as Occ-ser-Phe-leu-Leu-Hyp-Nml-Asp-Arg-Ile-NH2) [JAL-1800] | ≤ 5 µM
1888-[Aoc(2)][Sni]FLL[Hyp][NMeL]DRI-NH2 (not fully specified (some residues); printed as (1888)-Hgl-Sni-Phe-leu-Leu-Hyp-Nml-Asp-Arg-Ile-NH2; reading uncertain) [JAL-1806] | ≤ 5 µM
Octanoyl-[Nhpr]FLL[Hyp][NMeL]DRI-NH2 (not fully specified (some residues); printed as Occ-Nhpr-Phe-leu-Leu-Hyp-Nml-Asp-Arg-Ile-NH2) [JAL-1798] | ≤ 5 µM
[AR‑314‑102][leu]L[Hyp][NMeL]DRI-NH2 (reading uncertain; also: printed as (AR-314-102)-leu-Leu-Hyp-Nml-Asp-Arg-Ile-NH2) [JAL-1774] | ≤ 1 µM
1913-[Aoc(2)][Sni]FLL[Hyp][NMeL]DRI-NH2 (not fully specified (some residues); printed as (1913)-Hgl-Sni-Phe-leu-Leu-Hyp-Nml-Asp-Arg-Ile-NH2; reading uncertain) [JAL-1804] | ≤ 5 µM
[Oct][Sni]F[leu]L[Pro(trans-4-NH2)][NMeL]VP[Che] (reading uncertain; also: printed as Oct-Sni-Phe-leu-Leu-Tap-Nml-Val-Pro-Che) [JAL-1844] | ≤ 5 µM
Octanoyl-[Nbhp]FLL[Hyp][NMeL]DRI-NH2 (not fully specified (some residues); printed as Occ-Nbhp-Phe-leu-Leu-Hyp-Nml-Asp-Arg-Ile-NH2) [JAL-1799] | ≤ 5 µM
Octanoyl-[thz]FGLKLDRI-NH2 (reading uncertain; also: printed as Occ-thz-Phe-Gly-Leu-Lys-Leu-Asp-Arg-Ile-NH2) [JAL-0739] | ≤ 15 µM
1270-[Aoc(2)][Sni]FLL[Hyp][NMeL]DRI-NH2 (not fully specified (some residues); printed as (1270)-Hgl-Sni-Phe-leu-Leu-Hyp-Nml-Asp-Arg-Ile-NH2; reading uncertain) [JAL-1805] | ≤ 15 µM
Octanoyl-[Sni]F[orn(Me2)]L[Hyp][NMeL]DR[Che] (reading uncertain; also: printed as Occ-Sni-Phe-orn(Me2)-Leu-Hyp-Nml-Asp-Arg-Che) [JAL-1776] | ≤ 1 µM
1888-[dAoc(2)][Sni]FLL[Hyp][NMeL]DRI-NH2 (not fully specified (some residues); printed as 1888-hgl-Sni-Phe-leu-Leu-Hyp-Nml-Asp-Arg-Ile-NH2; reading uncertain) [JAL-1837] | ≤ 5 µM
{Gluc‑Aoa}-[Aoc(2)][Sni]FLL[Hyp][NMeL]DRI-NH2 (not fully specified (some residues); printed as Gluc-Aoa-Hgl-Sni-Phe-leu-Leu-Hyp-Nml-Asp-Arg-Ile-NH2) [JAL-1802] | ≤ 5 µM
H-[Adx][dAoc(2)][Sni]F[leu]L[Hyp][NMeL]DRI-NH2 (reading uncertain; also: printed as H-Adx-hgl-Sni-Phe-leu-Leu-Hyp-Nml-Asp-Arg-Ile-NH2) [JAL-1838] | ≤ 5 µM
[Oct][Sni]F[leu]L[Pro(trans-4-NH2)][NMeL]DR[Che] (reading uncertain; also: printed as Oct-Sni-Phe-leu-Leu-Tap-Nml-Asp-Arg-Che) [JAL-1843] | ≤ 1 µM
Octanoyl-[Sni]F[dDab](Me2)L[Hyp][NMeL]VRI-NH2 [JAL-1786] | ≤ 5 µM
Octanoyl-[Sni]F[lys(Me2)]L[Hyp][NMeL]DRI-NH2 (reading uncertain; also: printed as Occ-Sni-Phe-lys(Me2)-Leu-Hyp-Nml-Asp-Arg-Ile-NH2) [JAL-1781] | ≤ 5 µM
Octanoyl-[dA]FGLKLDRI-NH2 [JAL-0738] | ≤ 15 µM
Octanoyl-[Sni]F[dDab](Me2)L[Hyp][NMeL]DRI-NH2 [JAL-1785] | ≤ 1 µM
Octanoyl-[Sni]F[dDab](Me2)L[Hyp][NMeL]VR[Che] (reading uncertain; also: printed as Occ-Sni-Phe-dab(Me2)-Leu-Hyp-Nml-Val-Arg-Che) [JAL-1784] | ≤ 1 µM
Octanoyl-[Sni]F[orn(Me2)]L[Hyp][NMeL]VRI-NH2 (reading uncertain; also: printed as Occ-Sni-Phe-orn(Me2)-Leu-Hyp-Nml-Val-Arg-Ile-NH2) [JAL-1782] | ≤ 1 µM
H-[Adx][Aoc(2)][Sni]FLL[Hyp][NMeL]DRI-NH2 (not fully specified (residue 5); printed as H-Adx-Hgl-Sni-Phe-leu-Leu-Hyp-Nml-Asp-Arg-Ile-NH2; reading uncertain) [JAL-1808] | ≤ 1 µM
Octanoyl-[d(hSer)]FLL[Hyp][NMeL]DRI-NH2 (not fully specified (some residues); printed as Occ-hse-Phe-leu-Leu-Hyp-Nml-Asp-Arg-Ile-NH2) [JAL-1801] | ≤ 5 µM
Octanoyl-[Sni]F[lys(Me2)]L[Hyp][NMeL]VR[Che] (reading uncertain; also: printed as Occ-Sni-Phe-lys(Me2)-Leu-Hyp-Nml-Val-Arg-Che) [JAL-1779] | ≤ 1 µM
Octanoyl-[Sni]F[dK](Me2)L[Hyp][NMeL]VRI-NH2 [JAL-1783] | ≤ 15 µM
Octanoyl-[Sni]F[orn(Me2)]L[Hyp][NMeL]VR[Che] (reading uncertain; also: printed as Occ-Sni-Phe-orn(Me2)-Leu-Hyp-Nml-Val-Arg-Che) [JAL-1778] | ≤ 5 µM
Octanoyl-[Sni]F[lys(Me2)]L[Hyp][NMeL]DR[Che] (reading uncertain; also: printed as Occ-Sni-Phe-lys(Me2)-Leu-Hyp-Nml-Asp-Arg-Che) [JAL-1777] | ≤ 1 µM
